Source: the supplement of paper PMC10724198
± gives the standard deviation of the averaged measurements.

system: Saccharomyces cerevisiae; assay: protein stability index of tFT-peptide fusion (C-terminal peptide) (PSI (0-1 scale)); higher = more stable (slower turnover); conditions: genetic background: cdc53-1; temperature: 37 C
Experimental: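 MPS profiling in S. cerevisiae of the tFT-X12 degron library: putative degron peptides plus stable controls, 12 aa, fused to the C-terminus of a sfGFP-mCherry timer. Cells are FACS-sorted into 8 mCherry/sfGFP bins and deep-sequenced. PSI runs from 0 (unstable) to 1 (stable). Backgrounds are wild type, das1Δ and doa10Δ at 30 °C, and wild type, das1Δ, cdc34-1 and cdc53-1 at 37 °C; 2-3 technical replicates each.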
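Note: PSI is a weighted mean of sequencing reads over stability bins, variants kept only with over 10 reads, mCherry proximal and sfGFP distal, peptide attached via GGGS linker.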

Sequence	protein stability index
PAPQAVRIFSLY	0.74 ± 0.026
PASYPPFIYLSI	0.288 ± 0.018
PCFACIAFVLFP	0.413 ± 0.093
PLFLRPLSVPVL	0.441 ± 0.01
PLLPCRPILFLL	0.627 ± 0.027
PLLPLPRFPLFA	0.558 ± 0.038
PLSDPLRVILIM	0.633 ± 0.06
PPPPTPRPLLPP	0.7253 ± 0.0031
PPPRLPLLSCSQ	0.679 ± 0.0094
PPPSRRLTLRLA	0.6993 ± 0.0065
PPWRPVALLLLA	0.259 ± 0.022
PRFCVYARFHNT	0.748 ± 0.01
PRFWFYLSYSVH	0.514 ± 0.012
PSPPPPLPPHPS	0.7321 ± 0.0069
PSPPPPRPASPS	0.7492 ± 0.0073
PSTLVITVVITK	0.29 ± 0.0099
PYHAPRPPFSLF	0.68 ± 0.0087
QARQLEMYMVVF	0.532 ± 0.12
QCKHIVRKIKLH	0.61 ± 0.11
QDFFYCLLVATS	0.276 ± 0.015
QGILVGCCYVLC	0.4409 ± 0.00073
QLGGKVGNCHVV	0.7507 ± 0.0047
QVGRPRVGFSRR	0.7483 ± 1.4e-05
RAFFLLYCTLWA	0.204 ± 0.039
RALYLLALVGVS	0.254 ± 0.02
RARFMLGVLLST	0.617 ± 0.033

Sequence	protein stability index
RARLRFASLRAF	0.629 ± 0.079
RDRHFKIQTCIM	0.721 ± 0.017
RFCLLFVVAGGV	0.527 ± 0.024
RFFFFFPCLLAP	0.3411 ± 0.001
RFYLFLFFVRST	0.4403 ± 0.0022
RGGVCFVVWCGG	0.503 ± 0.095
RGRLKSSYFILF	0.7127 ± 0.0056
RGWNGFWVVVVW	0.305 ± 0.03
RIKVTRRIIIYA	0.383 ± 0.07
RILSLQFILCKR	0.649 ± 0.015
RLARRGGGWGPG	0.7334 ± 0.0049
RLELTRIMIVAI	0.08016 ± 0.00021
RLGIRCLYLRFI	0.422 ± 0.052
RLLCLARMRGLH	0.714 ± 0.02
RLMVHQHTIPVR	0.54 ± 0.016
RLVIFITRYLIS	0.488 ± 0.066
RLVYSQKRWSLF	0.764 ± 0.032
RPGRWFCFLYCV	0.4311 ± 0.002
RPIFAYRPLRFL	0.757 ± 0.001
RPNTFRTRAKAL	0.712 ± 0.019
RRFKKTEIIKNN	0.765 ± 0.048
RRVPVHIHFSLF	0.707 ± 0.028
RSKKIFLTKKYS	0.734 ± 0.042
RSPIRYPPVVLS	0.753 ± 0.011
RSPVVVFAVLLF	0.481 ± 0.034
RSRCVRAAVKVG	0.659 ± 0.025

Sequence	protein stability index
RSRRNRYSRKIA	0.659 ± 0.031
RSWLCFIVFGLF	0.413 ± 0.03
RTSRPVRLFRIH	0.83846 ± 4.9e-05
RVCWLRAFGFLV	0.718 ± 0.019
RVGALLAVTCPA	0.47214 ± 0.00033
RVLILCLFFRWS	0.404 ± 0.0096
RVVILFVFLVYV	0.342 ± 0.0015
RWCLWGTRVWVS	0.522 ± 0.037
RWELASKCRLCV	0.6716 ± 0.0053
RWRDGVAWVVVC	0.314 ± 0.024
SAWGQAFWCQMG	0.7859 ± 0.0057
SCCGCGFGLLFC	0.807 ± 0.0017
SCCIYVALCRWL	0.573 ± 0.0093
SCGVYVVFVLVE	0.133 ± 0.047
SCIVRTLVPCPS	0.419 ± 0.034
SFCVLLQFCVLV	0.432 ± 0.0084
SFFCTRVLWVFQ	0.612 ± 0.025
SFHTFFCPFFIL	0.6678 ± 0.0037
SGPNASRFYAPI	0.733 ± 0.0081
SHPFIRSLVFLA	0.6729 ± 0.0026
SHWSMQATLQLV	0.694 ± 0.025
SIFFLVPLVFLS	0.532 ± 0.027
SIPVWTIELFAT	0.627 ± 0.012
SLEACYCFVVLV	0.199 ± 0.0087
SLFDQDCGGTVW	0.78 ± 0.013
SLIFRVGKFKSL	0.6968 ± 0.0048

same assay, conditions: genetic background: das1 deletion; temperature: 30 C

Sequence	protein stability index
PAPQAVRIFSLY	0.653 ± 0.044
PASYPPFIYLSI	0.419 ± 0.032
PCFACIAFVLFP	0.356 ± 0.038
PLFLRPLSVPVL	0.333 ± 0.03
PLLPCRPILFLL	0.558 ± 0.028
PLLPLPRFPLFA	0.411 ± 0.03
PLSDPLRVILIM	0.501 ± 0.0089
PPPPTPRPLLPP	0.677 ± 0.034
PPPRLPLLSCSQ	0.669 ± 0.016
PPPSRRLTLRLA	0.681 ± 0.02
PPWRPVALLLLA	0.247 ± 0.022
PRFCVYARFHNT	0.649 ± 0.036
PRFWFYLSYSVH	0.373 ± 0.044
PSPPPPLPPHPS	0.69 ± 0.031
PSPPPPRPASPS	0.651 ± 0.0084
PSTLVITVVITK	0.279 ± 0.029
PYHAPRPPFSLF	0.667 ± 0.021
QARQLEMYMVVF	0.403 ± 0.041
QCKHIVRKIKLH	0.617 ± 0.014
QDFFYCLLVATS	0.21 ± 0.038
QGILVGCCYVLC	0.313 ± 0.021
QLGGKVGNCHVV	0.6644 ± 0.0051
QVGRPRVGFSRR	0.652 ± 0.0075
RAFFLLYCTLWA	0.163 ± 0.027
RALYLLALVGVS	0.223 ± 0.034
RARFMLGVLLST	0.487 ± 0.028

Sequence	protein stability index
RARLRFASLRAF	0.64 ± 0.13
RDRHFKIQTCIM	0.648 ± 0.02
RFCLLFVVAGGV	0.343 ± 0.019
RFFFFFPCLLAP	0.417 ± 0.019
RFYLFLFFVRST	0.316 ± 0.039
RGGVCFVVWCGG	0.435 ± 0.0077
RGRLKSSYFILF	0.65 ± 0.013
RGWNGFWVVVVW	0.239 ± 0.039
RIKVTRRIIIYA	0.239 ± 0.054
RILSLQFILCKR	0.538 ± 0.024
RLARRGGGWGPG	0.657 ± 0.034
RLELTRIMIVAI	0.182 ± 0.024
RLGIRCLYLRFI	0.482 ± 0.059
RLLCLARMRGLH	0.631 ± 0.068
RLMVHQHTIPVR	0.307 ± 0.037
RLVIFITRYLIS	0.349 ± 0.044
RLVYSQKRWSLF	0.653 ± 0.014
RPGRWFCFLYCV	0.418 ± 0.022
RPIFAYRPLRFL	0.654 ± 0.014
RPNTFRTRAKAL	0.619 ± 0.026
RRFKKTEIIKNN	0.653 ± 0.022
RRVPVHIHFSLF	0.691 ± 0.014
RSKKIFLTKKYS	0.64 ± 0.035
RSPIRYPPVVLS	0.645 ± 0.021
RSPVVVFAVLLF	0.341 ± 0.036
RSRCVRAAVKVG	0.569 ± 0.043

Sequence	protein stability index
RSRRNRYSRKIA	0.696 ± 0.043
RSWLCFIVFGLF	0.317 ± 0.03
RTSRPVRLFRIH	0.656 ± 0.022
RVCWLRAFGFLV	0.587 ± 0.022
RVGALLAVTCPA	0.308 ± 0.025
RVLILCLFFRWS	0.274 ± 0.033
RVVILFVFLVYV	0.258 ± 0.037
RWCLWGTRVWVS	0.444 ± 0.021
RWELASKCRLCV	0.563 ± 0.021
RWRDGVAWVVVC	0.289 ± 0.032
SAWGQAFWCQMG	0.648 ± 0.019
SCCGCGFGLLFC	0.631 ± 0.023
SCCIYVALCRWL	0.43 ± 0.024
SCGVYVVFVLVE	0.16 ± 0.042
SCIVRTLVPCPS	0.253 ± 0.04
SFCVLLQFCVLV	0.351 ± 0.021
SFFCTRVLWVFQ	0.539 ± 0.022
SFHTFFCPFFIL	0.645 ± 0.038
SGPNASRFYAPI	0.634 ± 0.013
SHPFIRSLVFLA	0.629 ± 0.008
SHWSMQATLQLV	0.568 ± 0.021
SIFFLVPLVFLS	0.408 ± 0.035
SIPVWTIELFAT	0.428 ± 0.026
SLEACYCFVVLV	0.214 ± 0.028
SLFDQDCGGTVW	0.686 ± 0.016
SLIFRVGKFKSL	0.654 ± 0.019
